Measured values from PMC9546773, “Prediction of protein–ligand binding affinity from sequencing data with interpretable machine learning”.

Biological target: Dll (DllΔN) (Drosophila melanogaster, UniProt P20009 124-327)
Experiment: EMSA; 1:1 mix of dialysis buffer (20 mM HEPES pH 8.0, 200 mM NaCl, 10% glycerol, 2 mM MgCl2, 0.05% Tween 20) and DNA mix; final about 150 mM NaCl, 10 mM Tris pH 7.5
Details: tags: His6 (kept); label: Cy5 on the primer strand

Sequence of Dll (DllΔN) (P20009 124-327, stated change not applied): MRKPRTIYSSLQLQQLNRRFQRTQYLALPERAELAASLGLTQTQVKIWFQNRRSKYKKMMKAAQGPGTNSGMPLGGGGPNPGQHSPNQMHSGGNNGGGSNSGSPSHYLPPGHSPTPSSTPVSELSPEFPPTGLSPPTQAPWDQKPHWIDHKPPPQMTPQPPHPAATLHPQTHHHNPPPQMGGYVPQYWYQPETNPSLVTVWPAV

| Binder | Kd |
| --- | --- |
| probe 1 (dsDNA) DNA 1: GTTCAGAGTTCTACAGTCCGACCTGGTTTAATTGGTCCAGGACTCGGACCTGGACTAGG DNA 2: CCTAGTCCAGGTCCGAGTCCTGGACCAATTAAACCAGGTCGGACTGTAGAACTCTGAAC | 5.2 nM |
| probe 3 (dsDNA) DNA 1: GTTCAGAGTTCTACAGTCCGACCTGGTTTATTTGGTCCAGGACTCGGACCTGGACTAGG DNA 2: CCTAGTCCAGGTCCGAGTCCTGGACCAAATAAACCAGGTCGGACTGTAGAACTCTGAAC | ~2640 nM |
| probe 4 (dsDNA) DNA 1: GTTCAGAGTTCTACAGTCCGACCTGGTTTAATGGGTCCAGGACTCGGACCTGGACTAGG DNA 2: CCTAGTCCAGGTCCGAGTCCTGGACCCATTAAACCAGGTCGGACTGTAGAACTCTGAAC | 40.8 nM |
| probe 2 (dsDNA) DNA 1: GTTCAGAGTTCTACAGTCCGACCTGGTTTGATTGGTCCAGGACTCGGACCTGGACTAGG DNA 2: CCTAGTCCAGGTCCGAGTCCTGGACCAATCAAACCAGGTCGGACTGTAGAACTCTGAAC | 92.7 nM |
